Measurements from publication PMC5384396.

Legend:
[1] = target: cynomolgus monkey (cyno) GITR (cynomolgus monkey)
[2] = target: cynomolgus monkey (cyno) GITR (cynomolgus monkey); remark: listed apart in the source

MEDI1873 (Fc fusion) showed a Jurkat NFκB reporter gene assay with cyno GITR-transfected cells, EC50 [1] of 0.000422 µM and a Kd [2] of 0.107 µM.
